Drawing on paper PMC5193468, this text covers Kd for two molecules.

For series [1], the target named is T1, His-MBP-Lin28TT (Homo sapiens, UniProt Q9H9Z2 32-187).
T1 sequence: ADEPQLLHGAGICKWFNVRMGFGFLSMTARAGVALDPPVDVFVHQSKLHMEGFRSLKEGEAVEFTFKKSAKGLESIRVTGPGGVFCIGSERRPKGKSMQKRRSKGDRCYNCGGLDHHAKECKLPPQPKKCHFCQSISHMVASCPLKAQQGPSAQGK
The experiment in a line: fluorescence anisotropy; 100 mM NaCl; 50 uM ZnCl2; FA: 20 nM 5'-fluorescein RNA, 20 mM Tris-HCl pH 7.5, 50-750 mM NaCl (100 mM for the main miR-363 Kd), 10 mM beta-mercaptoethanol, 50 uM ZnCl2, 0.01% Tween 20, 2.

The target in series [2] is T1, His-MBP-Lin28TT. The experiment in a line: fluorescence anisotropy; 250 mM NaCl; 50 uM ZnCl2; FA: 20 nM 5'-fluorescein RNA, 20 mM Tris-HCl pH 7.5, 50-750 mM NaCl (100 mM for the main miR-363 Kd), 10 mM beta-mercaptoethanol, 50 uM ZnCl2, 0.01% Tween 20, 2. (In fluorescence polarisation assays a small probe gives low polarisation when free and higher when bound to something large.)

The target in series [3] is T1, His-MBP-Lin28TT. The experiment in a line: fluorescence anisotropy; 500 mM NaCl; 50 uM ZnCl2; FA: 20 nM 5'-fluorescein RNA, 20 mM Tris-HCl pH 7.5, 50-750 mM NaCl (100 mM for the main miR-363 Kd), 10 mM beta-mercaptoethanol, 50 uM ZnCl2, 0.01% Tween 20, 2.
For series [4], the target named is T1, His-MBP-Lin28TT. Description: fluorescence anisotropy; 750 mM NaCl; 50 uM ZnCl2; FA: 20 nM 5'-fluorescein RNA, 20 mM Tris-HCl pH 7.5, 50-750 mM NaCl (100 mM for the main miR-363 Kd), 10 mM beta-mercaptoethanol, 50 uM ZnCl2, 0.01% Tween 20, 2.
The target in series [5] is T1, His-MBP-Lin28TT. Description: fluorescence anisotropy; 50 uM ZnCl2; FA: 20 nM 5'-fluorescein RNA, 20 mM Tris-HCl pH 7.5, 50-750 mM NaCl (100 mM for the main miR-363 Kd), 10 mM beta-mercaptoethanol, 50 uM ZnCl2, 0.01% Tween 20, 2.

B1: miR-363 19-46 (structured_RNA)
RNA: GAUGCAAUUUUGAUGAGUAUCAUAGGAG
In general, Kd refers to the equilibrium constant for the complex coming apart. As to B1, the Kd with His-MBP-Lin28TT [1] is 16.6 ± 1.9 nM; with His-MBP-Lin28TT [2], 6.6 ± 0.9 nM; in the series with His-MBP-Lin28TT [3] it was 8 ± 0.8 nM; with His-MBP-Lin28TT [4], 12.4 ± 1.1 nM.

B2: let-7g 29-57 (structured_RNA)
RNA: CGGGUCUAUGAUACCACCCGGUACAGGAG
B2 came in with a Kd with His-MBP-Lin28TT [5] of 54.1 ± 4.2 nM.
